Article PMC10881500

Key:
[1] = target: KFN (Mut3; HuJovi-1 VH T28K, Y32F, A96N), human IgG1 (human); test: SPR; Biacore T200; antibody as human IgG1 captured with an anti-human capture kit on CM5 to 200 RU; TRBC1 or TRBC2 as analyte, 150 s contact, 300 s dissociation, 30 μl/min, 25 °C, HBS-P+ pH 7.4; 1:1 Langmuir model
[2] = target: HuJovi-1 (humanized Jovi-1), human IgG1 (human); test: as above
Chain of HuJovi-1 (humanized Jovi-1), human IgG1 (human) (heavy, as listed by the source, chain 1 of 2): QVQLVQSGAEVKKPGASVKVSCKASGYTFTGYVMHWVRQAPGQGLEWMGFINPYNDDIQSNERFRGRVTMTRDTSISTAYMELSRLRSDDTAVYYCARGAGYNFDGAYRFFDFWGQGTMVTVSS
Chain of HuJovi-1 (humanized Jovi-1), human IgG1 (human) (light, as listed by the source, chain 2 of 2): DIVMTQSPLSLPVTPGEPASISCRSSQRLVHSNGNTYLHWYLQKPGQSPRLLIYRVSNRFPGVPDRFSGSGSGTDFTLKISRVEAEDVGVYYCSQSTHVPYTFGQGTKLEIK

Chain of KFN (Mut3; HuJovi-1 VH T28K, Y32F, A96N), human IgG1 (human) (heavy, as listed by the source, chain 1 of 2): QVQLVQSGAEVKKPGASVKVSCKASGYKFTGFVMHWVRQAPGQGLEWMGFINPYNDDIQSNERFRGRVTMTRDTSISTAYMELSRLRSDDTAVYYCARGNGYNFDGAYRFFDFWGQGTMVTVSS
Chain of KFN (Mut3; HuJovi-1 VH T28K, Y32F, A96N), human IgG1 (human) (light, as listed by the source, chain 2 of 2): as the sequence (light, as listed by the source, chain 2 of 2) above

Substance “Recombinant, purified TRBC1 (soluble αβ TCR with the β-chain constant domain TRBC1), SPR analyte” has a Kd [1] of 1.96 µM and a koff [1] of 0.155 s⁻¹.
Substance “Recombinant, purified TRBC2 (soluble αβ TCR with the β-chain constant domain TRBC2), SPR analyte” has a Kd [2] of 12.9 µM and a koff [2] of 1.29 s⁻¹.
